Changes are numbered by the printed parent chain.
Columns and labels:
[1] = target: T1, human LAG-3 ECD (antigen protein of the affinity test) (human, UniProt P18627 23-450); assay: SPR (CM5 chip), antibody captured by anti-human Fc IgG, antigen protein in flow, 1:1 model
T1 sequence: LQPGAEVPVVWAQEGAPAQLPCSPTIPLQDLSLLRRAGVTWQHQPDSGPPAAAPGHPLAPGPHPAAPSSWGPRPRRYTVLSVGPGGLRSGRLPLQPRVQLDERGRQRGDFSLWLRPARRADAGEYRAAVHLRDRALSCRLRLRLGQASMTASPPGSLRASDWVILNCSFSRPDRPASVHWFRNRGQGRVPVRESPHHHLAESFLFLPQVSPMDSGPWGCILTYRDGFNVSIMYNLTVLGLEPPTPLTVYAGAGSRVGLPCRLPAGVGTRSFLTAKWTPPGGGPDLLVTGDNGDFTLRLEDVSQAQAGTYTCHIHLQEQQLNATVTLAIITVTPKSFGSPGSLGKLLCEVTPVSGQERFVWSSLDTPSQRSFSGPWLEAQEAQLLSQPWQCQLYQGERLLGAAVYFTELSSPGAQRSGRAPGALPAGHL
Experimental: (§1) First, anti-human Fc IgG was immobilized on the surface of the CM5 chip to 6000-10000 RU by amino coupling method, with FC1 as the reference channel. The coupling process was as follows: a freshly prepared 1:1 mixture of 50 mM NHS and 200 mM EDC was activated for 7 minutes, then injected with 10-50 ug/ml anti-human Fc IgG diluted in 10 mM sodium acetate ph5.0 buffer. The remaining activated sites were blocked with 1M ethanolamine. Then, HBS-EP+ buffer was used to dilute the antibody to be tested to 5 ug/ml (adjustable according to the capture level) and the antibodies were captured on the chip at a flow rate of 10 ul/min to obtain a response value of about 100˜300 RU. Then the antigen protein was diluted to 100 nM (the highest concentration was tentatively 100 nM), and flew through the chip surface at a flow rate of 30 ul/min. If enough signal value was obtained, the antigen-protein was diluted by several concentration gradients, and flew through the chip surface respectively. At the end of each cycle, the chip surface was regenerated with 10 mM Glycine at pH 1.5. The kinetic rate constant needed to be subtracted from the blank control, and the data was fitted with the global fit analysis method 1:1 combination model. The dissociation equilibrium rate constant (KD) was calculated according to the following formula: KD=kd/ka.
The method was the same as that in Example 5.

[2] = target: T2, human LAG-3 on cells (HEK293-hLAG-3 stable cell line) (human, UniProt P18627 23-525); assay: FACS, HEK293-hLAG-3, antibody 40 nM
T2 sequence: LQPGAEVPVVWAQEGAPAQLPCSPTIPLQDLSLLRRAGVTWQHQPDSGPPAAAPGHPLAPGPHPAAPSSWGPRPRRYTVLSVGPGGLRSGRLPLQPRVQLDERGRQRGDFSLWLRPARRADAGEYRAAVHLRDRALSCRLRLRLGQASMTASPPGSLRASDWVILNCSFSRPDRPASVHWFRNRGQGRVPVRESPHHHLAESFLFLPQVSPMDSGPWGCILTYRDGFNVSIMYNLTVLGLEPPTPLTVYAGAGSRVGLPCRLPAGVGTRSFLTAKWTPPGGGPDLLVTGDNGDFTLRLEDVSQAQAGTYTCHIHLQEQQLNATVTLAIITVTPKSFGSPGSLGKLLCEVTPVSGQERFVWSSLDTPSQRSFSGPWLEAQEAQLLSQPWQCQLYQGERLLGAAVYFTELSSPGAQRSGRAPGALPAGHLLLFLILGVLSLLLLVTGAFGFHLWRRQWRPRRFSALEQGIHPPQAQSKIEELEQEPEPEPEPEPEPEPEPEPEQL

[3] = target: T2, human LAG-3 on cells (HEK293-hLAG-3 …); assay: FACS, HEK293-hLAG-3, antibody 8 nM
[4] = target: T2, human LAG-3 on cells (HEK293-hLAG-3 …); assay: FACS, HEK293-hLAG-3, antibody 0 nM
[5] = target: T2, human LAG-3 on cells (HEK293-hLAG-3 …); assay: FACS, HEK293-hLAG-3, antibody 0.32 nM
[6] = target: T2, human LAG-3 on cells (HEK293-hLAG-3 …); assay: FACS, HEK293-hLAG-3, antibody 1.6 nM
[7] = target: T2, human LAG-3 on cells (HEK293-hLAG-3 …); assay: FACS, HEK293-hLAG-3, antibody 0.013 nM
[8] = target: T3, human LAG-3 ECD (antigen protein of the affinity test) (human, UniProt P18627 23-450); assay: SPR, CM5 chip, antibody captured by anti-human Fc IgG, antigen in flow, 1:1 fit
T3 sequence: T1 sequence
Experimental: as §1

[9] = target: T2, human LAG-3 on cells (HEK293-hLAG-3 …); assay: FACS, HEK293-hLAG-3, antibody 0.064 nM

B1: 405B8H3 mouse-human chimeric antibody (antibody, V domains shown)
VH: QVQLQQSGAELVRPGASVTLSCKASGYTFTDYEMHWVKQTPVHGLEWIGATDPETGNSAYNQKFKGKAIMTADKSSSTAYMELRSLTSEDSAVYYCISTGWNDWGQGTSLTVSS
VL: DIKMTQSPSSMYASLGERVTITCKASQDINSYLSWFQQKPGKSPKTLIYRADRLLDGVPSRFSGSGSGQDYSLTISSLEYGDMGIYYCLQYDEFPYTFGGGTKLEIK
notes: also called mAb103-405B8H3
Kd [1]: 3.11 nM
koff [1]: 0.000164 s⁻¹
kon [1]: 52800 M⁻¹ s⁻¹

B2: 405B8H3-1 (D→E) hot-spot mutated humanized antibody (antibody, V domains shown)
VH: QVQLVQSGAEVKKPGASVKVSCKASGYTFTDYEMHWVRQAPGQGLEWMGATDPETGNSAYNQKFKGRVTMTRDTSTSTVYMELSSLRSEDTAVYYCISTGWNDWGQGTTVTVSS
VL: DIQMTQSPSSLSASVGDRVTITCKASQDINSYLSWFQQKPGKAPKSLIYRADRLLEGVPSRFSGSGSGTDFTLTISSLQPEDFATYYCLQYDEFPYTFGQGTKLEIK
Kd [1]: 2.03 nM
koff [1]: 0.000158 s⁻¹
kon [1]: 77500 M⁻¹ s⁻¹

B3: 556F6B8 mouse-human chimeric antibody (antibody, V domains shown)
VH: RVQLKQSGPGLVQPSQSLSITCTVSGFSLIKYGVHWVRQSPGEGLEWLGVIWRGGITDYNAAFMSRLSITKDNSKSQVFFKMNSLQADDTAIYYCAKWDGPLAMDYWGQGTSVTVSS
VL: DIVMTQSHKFLSTSVGDRVSITCKASQDVGTTVAWYQQKPGQSPKLLIYWASTRHTGVPDRFTGSGSGTDFTLTISNVQSEDLADYFCQQYSSYPYTFGGGTKLEIK
notes: also called mAb123-556F6B8
Kd [1]: 2.68 nM
koff [1]: 0.000433 s⁻¹
kon [1]: 162000 M⁻¹ s⁻¹

B4: 556F6B8-3 (D→E) hot-spot mutated humanized antibody (antibody, V domains shown)
VH: QVQLQESGPGLVKPSETLSLTCTVSGFSLIKYGVHWIRQPPGKGLEWIGVIWRGGITDYNAAFMSRVTISKDTSKSQVSLKLSSVTAADTAVYYCARWEGPLAMDYWGQGTTVTVSS
VL: DIQLTQSPSFLSASVGDRVTITCKASQDVGTTVAWYQQKPGKAPKLLIYWASTRHTGVPSRFSGSGSGTEFTLTISSLQPEDFATYYCQQYSSYPYTFGQGTKLEIK
Kd [1]: 33.5 nM
koff [1]: 0.00384 s⁻¹
kon [1]: 115000 M⁻¹ s⁻¹

B5: 556F6B8-3 humanized antibody (antibody, V domains shown)
VH: B4 VH with E99D
VL: B4 VL
Mean fluorescence intensity [2]: 98
Mean fluorescence intensity [3]: 94
Mean fluorescence intensity [4]: 4
Mean fluorescence intensity [5]: 49
Mean fluorescence intensity [6]: 83
Mean fluorescence intensity [7]: 10
Kd [8]: 3.31 nM
koff [8]: 0.000465 s⁻¹
kon [8]: 141000 M⁻¹ s⁻¹
Mean fluorescence intensity [9]: 21

B6: 556F6B8-7 humanized antibody (antibody, V domains shown)
VH: B4 VH with E99D
VL: B4 VL with Q3V
Mean fluorescence intensity [2]: 98
Mean fluorescence intensity [3]: 93
Mean fluorescence intensity [4]: 4
Mean fluorescence intensity [5]: 44
Mean fluorescence intensity [6]: 79
Mean fluorescence intensity [7]: 8
Kd [8]: 3.25 nM
koff [8]: 0.000453 s⁻¹
kon [8]: 139000 M⁻¹ s⁻¹
Mean fluorescence intensity [9]: 18

Reference: patent publication US20210155689A1 (SHANGHAI PHARMAEXPLORER, published 2021)
